The values that follow are results of earlier work, collected in publication PMC8509922.

The term pKd denotes the negative decadic logarithm of the Kd, by convention in mol/L.

Data set [1] concerns the target BmpR1 (Homo sapiens) (UniProt P36894).
The target in data set [2] is Acvr1 (Homo sapiens) (UniProt Q04771).
Data set [3] shares this target. This is another data set of the same source.
Data set [4] deals with BmpR1 (Homo sapiens) (UniProt P36894). The source holds these as a separate data set.

pKd: −log10 of the molar value. Values joined by “and” are separate entries in the source; they are usually repeats but may differ in a detail not shown here. Equal entries are not always repeated. Where two headings read alike, the source gives them in different places.

Sequence of UniProt Q04771 (Q04771 21-123): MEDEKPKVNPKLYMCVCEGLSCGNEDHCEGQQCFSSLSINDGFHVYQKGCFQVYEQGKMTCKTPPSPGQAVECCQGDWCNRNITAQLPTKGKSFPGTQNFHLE
Sequence of UniProt P36894 (P36894 24-152): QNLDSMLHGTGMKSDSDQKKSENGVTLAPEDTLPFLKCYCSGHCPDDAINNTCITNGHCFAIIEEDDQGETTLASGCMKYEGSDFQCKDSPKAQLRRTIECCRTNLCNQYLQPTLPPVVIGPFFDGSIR

Bmp2 (from UniProt P12643): the pKd in the data set with BmpR1 (Homo sapiens) [1] was 9.10. “Bmp2/7 heterodimer (from UniProt P12643)”: the pKd in the data set with Acvr1 (Homo sapiens) [2] was 6.29 and 5.99.

For the substance Bmp7 (from UniProt P18075), the pKd with Acvr1 (Homo sapiens) [3] is 6.30; with BmpR1 (Homo sapiens) [4], 7.25.
